The values below come from patent publication US11260115B1, “Peptides and combination of peptides for use in immunotherapy against CLL and other cancers” (immatics biotechnologies GmbH, priority 2015, dated 2022).

In the assay the target is HLA-A*02:01 (Homo sapiens, UniProt P04439, D140Y/D185E/D98H/E176V/E277Q/G131W/G231S/I119V/I121R/I166T/I218V/L300P/L318F/N151K/N90K/P208A/P217A/Q86G/Q94H/R138H/R169H/T345S). Briefly: MHC binding assay (UV-ligand exchange, β2m ELISA, peptide exchange yield). The settings on record: binding to HLA-A*02:01. A digest of the protocol:
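Peptide-HLA-A*02:01 complexes formed by UV-mediated exchange of a photocleavable ligand; exchange yield measured by streptavidin-capture ELISA detecting β2m with HRP anti-β2m, TMB read at 450 nm. Refolded monomer standards 15-500 ng/ml; samples diluted 100-fold.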
Take “239 (ILAGEMLSV; listed as Homo sapiens) [compound 239]”: the “Peptide Exchange (MHC class I binding score, peptide exchange yield)” value (shortened to “Peptide Exchange”) is on record as ““+++” (>50 = +++)”. In the case of “241 (ILGDILLKV; listed as Homo sapiens) [compound 241]”, the “Peptide Exchange” value is ““+++” (>50 = +++)”. Regarding “242 (ILLGIQELL; listed as Homo sapiens) [compound 242]”, the “Peptide Exchange” value is recorded as ““+++” (>50 = +++)”. As to “243 (ILPTLEKELFL; listed as Homo sapiens) [compound 243]”, the “Peptide Exchange” value is ““+++” (>50 = +++)”. As for “244 (ILQALAVHL; listed as Homo sapiens) [compound 244]”, the entry is ““+++” (>50 = +++)”; as for “245 (KIMDYSLLLGV; listed as Homo sapiens) [compound 245]”, ““++++” (>75% = ++++)”. With “246 (KLDETGVAL; listed as Homo sapiens) [compound 246]”, the “Peptide Exchange” value is ““++” (>20% = ++)”. On to “247 (KLKDRLPSI; listed as Homo sapiens) [compound 247]”, for which the “Peptide Exchange” value is ““++” (>20% = ++)”.

As to “248 (KTVEPPISQV; listed as Homo sapiens) [compound 248]”, the “Peptide Exchange” value is ““++” (>20% = ++)”. “249 (LLPTGVFQV; listed as Homo sapiens) [compound 249]”: the “Peptide Exchange” value is listed as ““+++” (>50 = +++)”. Take “250 (LLVQEPDGLMV; listed as Homo sapiens) [compound 250]”: the “Peptide Exchange” value was ““+++” (>50 = +++)”. As to “251 (LLYDNVPGA; listed as Homo sapiens) [compound 251]”, the “Peptide Exchange” value was ““+++” (>50 = +++)”. For “252 (NLLDPGSSYLL; listed as Homo sapiens) [compound 252]”, the “Peptide Exchange” value is ““+++” (>50 = +++)”. As for “253 (NLWSVDGEVTV; listed as Homo sapiens) [compound 253]”, the “Peptide Exchange” value is recorded as ““+++” (>50 = +++)”. Consider “254 (QLIPKLIFL; listed as Homo sapiens) [compound 254]”, for which the “Peptide Exchange” value was ““+++” (>50 = +++)”. As to “255 (YLFEEAISM; listed as Homo sapiens) [compound 255]”, the “Peptide Exchange” value is listed as ““+++” (>50 = +++)”. “256 (QLLPVSNVVSV; listed as Homo sapiens) [compound 256]”: the “Peptide Exchange” value is recorded as ““+++” (>50 = +++)”. With “258 (RLDYITAEI; listed as Homo sapiens) [compound 258]”, the “Peptide Exchange” value was ““+++” (>50 = +++)”. In the case of “259 (RLLDEQFAVL; listed as Homo sapiens) [compound 259]”, the “Peptide Exchange” value is reported as ““+++” (>50 = +++)”. For the substance “260 (SLDDVEGMSV; listed as Homo sapiens) [compound 260]”, the “Peptide Exchange” value is listed as ““+++” (>50 = +++)”. As for “261 (SLVEAQGWLV; listed as Homo sapiens) [compound 261]”, the entry is ““+++” (>50 = +++)”. “262 (SLWNAGTSV; listed as Homo sapiens) [compound 262]”: the “Peptide Exchange” value is reported as ““+++” (>50 = +++)”. On to “263 (SQWEDIHVV; listed as Homo sapiens) [compound 263]”, for which the “Peptide Exchange” value was ““+++” (>50 = +++)”. As for “264 (TILDYINVV; listed as Homo sapiens) [compound 264]”, the “Peptide Exchange” value was ““+++” (>50 = +++)”. Turning to “265 (TLLADDLEIKL; listed as Homo sapiens) [compound 265]”, the “Peptide Exchange” value is ““+++” (>50 = +++)”.
